Results taken from the supplement of paper PMC10567573.

B1: TRIM39 (parent)
chain: CKACITRWWEDLERDFPCPVCRKT
B2: APBB1IP (parent)
chain: SQVSMWDQRWQDHQPLLPITDVP

Variants of: B1
Assay: protein stability index of a GFP-peptide fusion (GPS, HEK-293T) (PSI 1-6); higher = more stable
Conditions: c terminus: a fixed tail appended
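Note: lentivirally expressed fusions sorted by FACS into six bins by GFP to DsRed ratio, PSI derived from sequencing read proportions per bin multiplied by bin number.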

Protein stability index, by site and new letter:
E13: I 3.08, K 2.98, L 3.15, M 2.95, N 3.61, P 3.61, Q 3.94, R 3.46, S 3.63, T 3.13, V 2.98, W 2.92, Y 3.79
R14: A 4.19, C 4.09, D 3.99, E 4.59, F 3.69, G 4.59, H 4.23, I 3.26, K 4.03, L 3.4, M 4.27, N 3.83, P 3.79, Q 3.78, S 4.4, T 4.63, V 3.76, W 3.52, Y 3.48
D15: A 3.32, C 2.09, E 3.54, F 3.24, G 3.31, H 2.72, I 2.43, K 2.98, L 2.26, M 2.37, N 3.73, P 3.87, Q 3.36, R 2.46, S 3.79, T 3.06, V 3, W 2.72, Y 2.84
F16: A 4.32, C 2.32, D 4.42, E 4.66, G 4.05, H 4.1, I 3.78, K 4.48, L 2.96, M 3.99, N 3.54, P 3.76, Q 4.59, R 4.2, S 4.27, T 4.37, V 4.04, W 3.6, Y 3.7
P17: A 3.55, C 3.98, D 3.5, E 4.41, F 4.25, G 3.46, H 4, I 3.97, K 4.06, L 3.85, M 4.09, N 4.27, Q 4.2, R 4.27, S 4.2, T 3.97, V 4.35, W 3.49, Y 3.9
C18: D 1.71, E 1.94, F 2.34, G 1.77, H 1.54, I 1.79, K 1.38, L 2.41, M 1.42, N 1.24, P 2.25, Q 2.53, R 2.02, S 1.88, T 1.39, V 1.28, W 1.11, Y 2.02
P19: A 3.15, C 2.26, D 3.85, E 3.55, F 1.95, G 2.86, H 3.35, I 2.3, K 2.69, L 2.65, M 2.88, N 3.29, Q 3.12, R 2.82, S 3.47, T 3.35, V 2.94, W 2.1, Y 2.27
V20: A 4.24, C 3.44, D 4.55, E 4.77, F 3.78, G 3.39, H 3.88, I 4.22, K 4.19, L 4.16, M 3.37, N 4.37, P 2.36, Q 4.09, R 3.99, S 4.3, T 4.4, W 3.56, Y 3.73
C21: A 2.18, D 2.57, E 1.32, F 1.43, G 1.4, H 2.63, I 1.38, K 2.19, L 1.62, M 1.56, N 2.39, P 1.11, Q 2.48, R 1.94, S 1.68, T 1.56, V 1.52, W 2.18, Y 3.73
R22: A 4.36, C 3.74, D 3.75, E 4.37, F 3.4, G 4.6, H 4.32, I 3.62, K 3.47, L 3.81, M 3.72, N 4.22, P 3.15, Q 3.96, S 3.56, T 3.72, V 3.04, W 2.53, Y 3.58
K23: A 3.9, C 3.13, D 4.34, E 4.33, F 2.57, G 3.38, H 3.27, I 3.23, L 2.96, M 3.37, N 3.95, P 3.41, Q 4.58, R 3.25, S 3.63, T 3.31, V 3.42, W 2.95, Y 2.29
T24: A 4.07, C 2.75, D 4.83, E 3.98, F 3.03, G 4.24, H 3.58, I 3.57, K 3.83, L 3.78, M 3.76, N 3.61, P 2.78, Q 4.21, R 3.67, S 4.03, V 3.57, W 3.02, Y 3.74

Variants of: B2
Assay: as above
Conditions: c terminus: native

Protein stability index: each site, then its substitutions
S1: C 2.69, D 2.25, E 3.87, F 1.92, G 2.03, H 2.46, I 1.56, K 1.76, L 1.36, M 1.96, N 2.19, P 2.94, Q 2.36, R 2.23, T 2.04, V 2.85, W 3.14, Y 4
Q2: A 1.88, C 1.94, D 3.38, E 3.32, F 1.31, G 2.07, H 2.23, I 2.75, K 2.57, L 1.5, M 3.18, N 2.6, P 2.83, R 1.66, S 1.88, T 2.54, V 2.33, W 1.72, Y 1.89
V3: A 3.18, C 1.91, D 2.81, E 2.9, F 1.86, H 3.28, I 2.23, K 2.34, L 2.04, M 2.83, N 2.49, P 2.8, Q 3.47, R 2.43, S 2.84, T 2.34, W 1.64, Y 2.27
S4: A 2.84, C 1.95, D 2.58, E 3.8, F 1.98, H 1.74, I 2.42, K 2.15, L 2.02, M 2.57, N 2.92, P 2.73, Q 4.05, T 2.23, V 2.49, W 2.01, Y 2.42
M5: A 3.14, C 1.52, D 3.15, F 1.89, G 2.37, I 1.98, K 2.64, L 2.77, N 2.76, P 3.15, R 3.34, S 2.5, T 2.73, V 1.65, Y 2.17
W6: A 3.27, C 3.04, D 4.13, E 4.03, F 2.55, G 2.95, H 2.51, I 2.56, K 3.24, L 3.09, M 2.65, N 3.52, P 3.18, Q 3.48, R 3.29, S 3.08, T 4.02, V 3.01, Y 2.09
D7: A 3.25, C 2.37, E 2.85, F 1.23, G 1.49, H 1.68, I 1.04
